Laboratory results taken from publication PMC11410209.

Biological target: 2526 IgG3
Assay: ELISA
Conditions: read off a plot

Substance	response (parent: est. 4.0)	response
H1 NC99 trimer, wild type HA (Fig 5A) (from UniProt Q6WG00) N23T	2.8 Abs (450nm)	–
WT-NTD N61A	–	2.7 Abs (450nm)
WT-NTD N149A	–	1 Abs (450nm)
WT-NTD N165A	–	2.7 Abs (450nm)
WT-NTD N234A	–	1.7 Abs (450nm)
